Measured values from article PMC3512577 (Nature structural & molecular biology, 2011).

B1: FH19–20 (wild-type recombinant fragment of human complement factor H, CCP modules 19 and 20) (domain or fragment, UniProt P08603 1108-1231, looked up)
chain: KCGPPPPIDNGDITSFPLSVYAPASSVEYQCQNLYQLEGNKRITCRNGQWSEPPKCLHPCVISREIMENYNIALRWTAKQKLYSRTGESVEFVCKRGYRLSSRSHTLRTTCWDGKLEYPTCAKR
modifications: 15N-labelled (NMR experiments only)

What was measured:
[1] = molecular target: recombinant C3d D122A (D1115A) (human) (UniProt P01024); test: SPR
[2] = molecular target: recombinant C3d E117A/D122A (E1110A/D1115A), with C17A (C1011A) (human, UniProt P01024 996-1306, E117A (E1110A) | D122A (D1115A)); test: SPR
[3] = molecular target: recombinant C3d D122A (D1115A), with C17A (C1011A) (human, UniProt P01024 996-1306, D122A (D1115A)); test: SPR
[4] = molecular target: recombinant C3d E117A (E1110A), with C17A (C1011A) (human, UniProt P01024 996-1306, E117A (E1110A)); test: SPR
plasma-derived C3d = plasma-derived C3d (UniProt P01024 996-1303); test: NMR titration

| Molecule | Kd [1] [µM] | Kd [2] [µM] | fold decrease in affinity against wild-type C3d [2] [fold] | fold decrease in binding against C3d E160A and I164A [3] [fold] | fold decrease in binding against wild-type C3d [3] [fold] | fold decrease in binding against C3d E160A and I164A [4] [fold] | fold decrease in binding against wild-type C3d [4] [fold] | binding result (plasma-derived C3d) |
| --- | --- | --- | --- | --- | --- | --- | --- | --- |
| complement factor H CCP19–20, wild type (FH19–20) (from UniProt P08603 1108-1231) (domain or fragment) | 46 |  |  |  |  |  |  |  |
| FH19–20 L1189F (from UniProt P08603 1108-1231) (domain or fragment) | 46 |  |  |  |  |  |  |  |
| B1 |  | ~30000 | ~1600 | 3 | 6 | 2 | 4 | binds |
